Test [1] concerns the target L1-10_NLuc antigen (Strep-MBP-L1-10-Nluc) (human). Nature of the test: luminescence ELISA, M22 directly coated, L1-10_NLuc titrated. Background: In an ELISA, binding on a coated surface is turned into a signal by an enzyme label.
The target is the same in test [2]. Nature of the test: competition ELISA, soluble M22 titrated with L1-10_NLuc at 1 µg/mL; competitor M22 coated on the plate.
Test [3] has the same target. Nature of the test: competition ELISA, soluble M22 titrated with L1-10_NLuc at 0.1 µg/mL; competitor M22 coated on the plate.
The target is the same in test [4]. As to the kind of experiment: competition ELISA, soluble M22 titrated with L1-10_NLuc at 0.2 µg/mL; competitor M22 coated on the plate.

The values that follow come from US20210188971A1.

A value given as a limit tells only on which side of the number the result lay.

What is called IC50 is the concentration needed to halve the response being measured.

In the case of “M22, unlabeled (thyroid-stimulating TSHR-specific monoclonal antibody)”, the RLU in test [1] is under 7e+06 RLU. Moreover, the IC50 in test [2] was found to be 0.03 µg/mL; in test [3], 8 ng/mL; in test [4] it was 0.012 µg/mL.
